Measurements reported in patent publication US20200079833A1 (AstraZeneca / MedImmune, published 2020).
Starred links: 1 amine or outer side, 2 acyl side, 3 side chain; linkers in the order of their positions; H or OH if unused. Non-standard residues stand in square brackets, D forms with d. Groups on a side chain read outwards from the residue. Primed or numbered codes have the meaning given here. No end group written: not given here. *: point of attachment. γGlu = O=C(O)[C@H](CCC(=O)[*:2])N[*:1]; Stearoyl = CCCCCCCCCCCCCCCCCC(=O)*; Palmitoyl = CCCCCCCCCCCCCCCC(=O)*; αMeF = C[C@](N)(Cc1ccccc1)C(=O)O; αMeK = C[C@](N)(CCCCN)C(=O)O; αMeS = C[C@](N)(CO)C(=O)O; PEG2′ = not defined here; Aib = CC(C)(N)C(=O)O

T1: glucose-dependent insulinotropic peptide (gastric inhibitory polypeptide) receptor (human, UniProt P48546 22-466)
T1 sequence (looked up): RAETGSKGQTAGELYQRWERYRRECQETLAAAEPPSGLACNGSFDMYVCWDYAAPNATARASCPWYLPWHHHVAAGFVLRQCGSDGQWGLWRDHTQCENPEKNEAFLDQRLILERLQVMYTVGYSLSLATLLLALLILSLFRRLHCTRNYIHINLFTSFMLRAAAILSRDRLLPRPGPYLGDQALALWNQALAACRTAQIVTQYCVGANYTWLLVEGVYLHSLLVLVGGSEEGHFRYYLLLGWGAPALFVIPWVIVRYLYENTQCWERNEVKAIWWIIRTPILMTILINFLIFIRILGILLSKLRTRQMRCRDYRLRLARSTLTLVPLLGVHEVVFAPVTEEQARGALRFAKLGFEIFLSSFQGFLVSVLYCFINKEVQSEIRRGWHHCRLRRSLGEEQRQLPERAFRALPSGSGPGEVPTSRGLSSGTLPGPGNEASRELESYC

B1: SEQ ID NO 27 (peptide)
peptide: H[Aib]EGS[αMeF]TDDV[αMeS]S[αMeF]LEGEAA[αMeK]E[αMeF]IA[αMeF]VV[αMeK]GG-NH2
modifications: N-terminus assumed
SMILES: CC[C@H](C)[C@H](NC(=O)[C@](C)(Cc1ccccc1)NC(=O)[C@H](CCC(=O)O)NC(=O)[C@](C)(CCCCN)NC(=O)[C@H](C)NC(=O)[C@H](C)NC(=O)[C@H](CCC(=O)O)NC(=O)CNC(=O)[C@H](CCC(=O)O)NC(=O)[C@H](CC(C)C)NC(=O)[C@](C)(Cc1ccccc1)NC(=O)[C@H](CO)NC(=O)[C@](C)(CO)NC(=O)[C@@H](NC(=O)[C@H](CC(=O)O)NC(=O)[C@H](CC(=O)O)NC(=O)[C@@H](NC(=O)[C@](C)(Cc1ccccc1)NC(=O)[C@H](CO)NC(=O)CNC(=O)[C@H](CCC(=O)O)NC(=O)C(C)(C)NC(=O)[C@@H](N)Cc1c[nH]cn1)[C@@H](C)O)C(C)C)C(=O)N[C@@H](C)C(=O)N[C@@](C)(Cc1ccccc1)C(=O)N[C@H](C(=O)N[C@H](C(=O)N[C@@](C)(CCCCN)C(=O)NCC(=O)NCC(N)=O)C(C)C)C(C)C
B2: SEQ ID NO 28 (peptide)
peptide: H[Aib]EGS[αMeF]TEDV[αMeS]S[αMeF]LEGEAA[αMeK]E[αMeF]IA[αMeF]VV[αMeK]GG-NH2
modifications: N-terminus assumed
SMILES: CC[C@H](C)[C@H](NC(=O)[C@](C)(Cc1ccccc1)NC(=O)[C@H](CCC(=O)O)NC(=O)[C@](C)(CCCCN)NC(=O)[C@H](C)NC(=O)[C@H](C)NC(=O)[C@H](CCC(=O)O)NC(=O)CNC(=O)[C@H](CCC(=O)O)NC(=O)[C@H](CC(C)C)NC(=O)[C@](C)(Cc1ccccc1)NC(=O)[C@H](CO)NC(=O)[C@](C)(CO)NC(=O)[C@@H](NC(=O)[C@H](CC(=O)O)NC(=O)[C@H](CCC(=O)O)NC(=O)[C@@H](NC(=O)[C@](C)(Cc1ccccc1)NC(=O)[C@H](CO)NC(=O)CNC(=O)[C@H](CCC(=O)O)NC(=O)C(C)(C)NC(=O)[C@@H](N)Cc1c[nH]cn1)[C@@H](C)O)C(C)C)C(=O)N[C@@H](C)C(=O)N[C@@](C)(Cc1ccccc1)C(=O)N[C@H](C(=O)N[C@H](C(=O)N[C@@](C)(CCCCN)C(=O)NCC(=O)NCC(N)=O)C(C)C)C(C)C
B3: SEQ ID NO 29 (peptide)
peptide: H[Aib]EGS[αMeF]TTDV[αMeS]S[αMeF]LEGEAA[αMeK]E[αMeF]IA[αMeF]VV[αMeK]GG-NH2
modifications: N-terminus assumed
SMILES: CC[C@H](C)[C@H](NC(=O)[C@](C)(Cc1ccccc1)NC(=O)[C@H](CCC(=O)O)NC(=O)[C@](C)(CCCCN)NC(=O)[C@H](C)NC(=O)[C@H](C)NC(=O)[C@H](CCC(=O)O)NC(=O)CNC(=O)[C@H](CCC(=O)O)NC(=O)[C@H](CC(C)C)NC(=O)[C@](C)(Cc1ccccc1)NC(=O)[C@H](CO)NC(=O)[C@](C)(CO)NC(=O)[C@@H](NC(=O)[C@H](CC(=O)O)NC(=O)[C@@H](NC(=O)[C@@H](NC(=O)[C@](C)(Cc1ccccc1)NC(=O)[C@H](CO)NC(=O)CNC(=O)[C@H](CCC(=O)O)NC(=O)C(C)(C)NC(=O)[C@@H](N)Cc1c[nH]cn1)[C@@H](C)O)[C@@H](C)O)C(C)C)C(=O)N[C@@H](C)C(=O)N[C@@](C)(Cc1ccccc1)C(=O)N[C@H](C(=O)N[C@H](C(=O)N[C@@](C)(CCCCN)C(=O)NCC(=O)NCC(N)=O)C(C)C)C(C)C
B4: SEQ ID NO 30 (peptide)
peptide: H[Aib]EGS[αMeF]TVDV[αMeS]S[αMeF]LEGEAA[αMeK]E[αMeF]IA[αMeF]VV[αMeK]GG-NH2
modifications: N-terminus assumed
SMILES: CC[C@H](C)[C@H](NC(=O)[C@](C)(Cc1ccccc1)NC(=O)[C@H](CCC(=O)O)NC(=O)[C@](C)(CCCCN)NC(=O)[C@H](C)NC(=O)[C@H](C)NC(=O)[C@H](CCC(=O)O)NC(=O)CNC(=O)[C@H](CCC(=O)O)NC(=O)[C@H](CC(C)C)NC(=O)[C@](C)(Cc1ccccc1)NC(=O)[C@H](CO)NC(=O)[C@](C)(CO)NC(=O)[C@@H](NC(=O)[C@H](CC(=O)O)NC(=O)[C@@H](NC(=O)[C@@H](NC(=O)[C@](C)(Cc1ccccc1)NC(=O)[C@H](CO)NC(=O)CNC(=O)[C@H](CCC(=O)O)NC(=O)C(C)(C)NC(=O)[C@@H](N)Cc1c[nH]cn1)[C@@H](C)O)C(C)C)C(C)C)C(=O)N[C@@H](C)C(=O)N[C@@](C)(Cc1ccccc1)C(=O)N[C@H](C(=O)N[C@H](C(=O)N[C@@](C)(CCCCN)C(=O)NCC(=O)NCC(N)=O)C(C)C)C(C)C
B5: SEQ ID NO 32 (peptide)
peptide: H[Aib]EGS[αMeF]TSDV[αMeS]S[αMeF]LEGEAA[αMeK]E[αMeF]IA[αMeF]VV[αMeK]GGK([γGlu-Palmitoyl])-NH2
modifications: N-terminus assumed
SMILES: CCCCCCCCCCCCCCCC(=O)N[C@@H](CCC(=O)NCCCC[C@H](NC(=O)CNC(=O)CNC(=O)[C@](C)(CCCCN)NC(=O)[C@@H](NC(=O)[C@@H](NC(=O)[C@](C)(Cc1ccccc1)NC(=O)[C@H](C)NC(=O)[C@@H](NC(=O)[C@](C)(Cc1ccccc1)NC(=O)[C@H](CCC(=O)O)NC(=O)[C@](C)(CCCCN)NC(=O)[C@H](C)NC(=O)[C@H](C)NC(=O)[C@H](CCC(=O)O)NC(=O)CNC(=O)[C@H](CCC(=O)O)NC(=O)[C@H](CC(C)C)NC(=O)[C@](C)(Cc1ccccc1)NC(=O)[C@H](CO)NC(=O)[C@](C)(CO)NC(=O)[C@@H](NC(=O)[C@H](CC(=O)O)NC(=O)[C@H](CO)NC(=O)[C@@H](NC(=O)[C@](C)(Cc1ccccc1)NC(=O)[C@H](CO)NC(=O)CNC(=O)[C@H](CCC(=O)O)NC(=O)C(C)(C)NC(=O)[C@@H](N)Cc1c[nH]cn1)[C@@H](C)O)C(C)C)[C@@H](C)CC)C(C)C)C(C)C)C(N)=O)C(=O)O
B6: SEQ ID NO 33 (peptide)
peptide: H[Aib]EGS[αMeF]TSDV[αMeS]S[αMeF]LEGEAAK([PEG2′-PEG2′-γGlu-Stearoyl])E[αMeF]IA[αMeF]VV[αMeK]GG-NH2
B7: SEQ ID NO 34 (peptide)
peptide: H[Aib]EGS[αMeF]TSDV[αMeS]S[αMeF]LEGEAAK([γGlu-Palmitoyl])E[αMeF]IA[αMeF]VV[αMeK]GG-NH2
modifications: N-terminus assumed
SMILES: CCCCCCCCCCCCCCCC(=O)N[C@@H](CCC(=O)NCCCC[C@H](NC(=O)[C@H](C)NC(=O)[C@H](C)NC(=O)[C@H](CCC(=O)O)NC(=O)CNC(=O)[C@H](CCC(=O)O)NC(=O)[C@H](CC(C)C)NC(=O)[C@](C)(Cc1ccccc1)NC(=O)[C@H](CO)NC(=O)[C@](C)(CO)NC(=O)[C@@H](NC(=O)[C@H](CC(=O)O)NC(=O)[C@H](CO)NC(=O)[C@@H](NC(=O)[C@](C)(Cc1ccccc1)NC(=O)[C@H](CO)NC(=O)CNC(=O)[C@H](CCC(=O)O)NC(=O)C(C)(C)NC(=O)[C@@H](N)Cc1c[nH]cn1)[C@@H](C)O)C(C)C)C(=O)N[C@@H](CCC(=O)O)C(=O)N[C@@](C)(Cc1ccccc1)C(=O)N[C@H](C(=O)N[C@@H](C)C(=O)N[C@@](C)(Cc1ccccc1)C(=O)N[C@H](C(=O)N[C@H](C(=O)N[C@@](C)(CCCCN)C(=O)NCC(=O)NCC(N)=O)C(C)C)C(C)C)[C@@H](C)CC)C(=O)O

These binders were tested against T1, glucose-dependent insulinotropic … (assay: cell-based or functional assay).

Row | Binder | Primary assay EC50 (cAMP), n1 [nM] | Primary assay EC50 (cAMP), n2 [nM]
1 | B1 | 100 | 100
2 | B2 | 100 | 100
3 | B3 | 100 | 100
4 | B4 | 100 | 100
5 | B5 | 90 | 90
6 | B6 | 25 | 25
7 | B7 | 93 | 93

These binders were tested against GLP-1 receptor (human, UniProt P43220 24-463) (assay: cell-based or functional assay).

Row | Binder | Primary assay EC50 (cAMP), Mean pM GLP-1R [pM] | Primary assay EC50 (cAMP), n1 [nM] | Primary assay EC50 (cAMP), n2 [nM]
8 | B1 | 446 | 0.42 | 0.48
9 | B2 | 4620 | 4.6 | 4.7
10 | B3 | 801 | 0.78 | 0.82
11 | B4 | 88600 | 80 | 97
12 | B5 | 27 | 0.036 | 0.018
13 | B6 | 100 | 0.064 | 0.14
14 | B7 | 43 | 0.039 | 0.048

Each binder was assayed against glucagon receptor (human, UniProt P47871 26-477) (assay: cell-based or functional assay).
Chain of glucagon receptor (P47871 26-477): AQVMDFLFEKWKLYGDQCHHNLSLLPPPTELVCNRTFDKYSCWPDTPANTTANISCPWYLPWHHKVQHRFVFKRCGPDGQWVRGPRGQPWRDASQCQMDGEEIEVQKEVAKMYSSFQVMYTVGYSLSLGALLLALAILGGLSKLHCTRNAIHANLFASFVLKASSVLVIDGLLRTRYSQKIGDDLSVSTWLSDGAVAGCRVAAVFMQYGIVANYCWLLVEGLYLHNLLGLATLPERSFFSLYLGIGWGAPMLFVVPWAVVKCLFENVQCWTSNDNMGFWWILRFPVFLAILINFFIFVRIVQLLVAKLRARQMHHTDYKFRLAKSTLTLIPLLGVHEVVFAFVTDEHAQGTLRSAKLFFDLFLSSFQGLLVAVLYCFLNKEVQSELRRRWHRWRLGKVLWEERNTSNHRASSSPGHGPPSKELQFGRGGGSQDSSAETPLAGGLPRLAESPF

Row | Binder | Primary assay EC50 (cAMP), n1 [nM] | Primary assay EC50 (cAMP), n2 [nM]
15 | B1 | 100 | 40
16 | B2 | 100 | 100
17 | B3 | 100 | 100
18 | B4 | 100 | 100
19 | B5 | 90 | 90
20 | B6 | 25 | 25
21 | B7 | 93 | 93
